Key:
[1] = Size exclusion chromatography (SEC): physical homogeneity and in vitro stability; assay type: physicochemical; conditions: for Ab (intact antibody) / Agg (aggregates) / Frgm (fragments): 0.2-0.4 mg/ml in PBS; for Ab (intact antibody) / Agg (aggregates) / Frgm (fragments) / aggregation and fragmentation in stability analysis: SEC; for aggregation and fragmentation in stability analysis: PBS, freeze-thaw, 4, 25, 40° C. for 4 and 8 weeks; for SEC profile of purified protein (physical homogeneity): purified protein in PBS
Procedure: For measuring molecular weight (MW) of light and heavy chains of DVD-Ig binding protein, 10 μL of DVD-Ig molecule (0.8 μg/μL) was reduced by 1.0 M DTT solution (5 μL). A PLRP-S, 8μ, 4000 A, and 1×150 mm protein column (Michrom BioResource, Auburn, Mass.) was used to separate heavy and light chains of DVD-Ig molecule. Agilent HP1100 Capillary HPLC (Agilent Technologies Inc., Pala Alto, Calif.) was used with the mass spectrometer QSTAR (Applied Biosystems, Foster City, Calif.). The valco valve was set at 10 minutes to switch the flow from waste to MS for desalting sample. Buffer A was 0.02% TFA, 0.08% FA, 0.1% ACN and 99.8% HPLC-H2O. Buffer B contained 0.02% TFA, 0.08% FA, 0.1% HPLC-H2O, and 99.8% ACN. The HPLC flow rate was 50 μL/minute and the sample injection volume was […]. The temperature of the column oven was set at 60° C., and separation gradient was: 5% B for 5 minutes; 5% B to 65% B for 35 minutes; 65% B to 95% B for another 5 minutes, and 95% B to 5% B for 5 minutes. TOFMS scan was from 800 to 2500 amu, and cycles were 3600. To determine the MW of full length DVD-Ig binding protein, a Protein MicroTrap cartridge (Michrom BioResource, Auburn, Mass.) was used for desalting the sample. The HPLC gradient was: 5% B for 5 minutes; 5% B to 95% B in 1 minute; and from 95% B to 5% B in another 4 minutes. The QSTAR TOFMS scan was from 2000 to 3500 amu, and cycles were 899. All MS raw data were analyzed using the Analyst QS software (Applied Biosystems). For SEC analysis of the DVD-Ig binding protein, purified DVD-Ig binding protein and chimeric Abs, in PBS, were applied on a Superose 6 10/300 G2, 300×10 mm column (Amersham Bioscience, Piscataway, N.J.). An HPLC instrument, Model 10A (Shimadzu, Columbia, Md.) was used for SEC. All proteins were determined using UV detection at 280 nm and 214 nm. The elution was isocratic at a flow rate of 0.5 mL/minute. For stability study, samples in the concentration range of 0.2-0.4 mg/ml in PBS underwent 3 freeze-thaw cycles between −80° C. and 25° C., or were incubated at 4° C., 25° C., or 40° C., for 4 weeks and 8 weeks, followed by SEC analysis.
In order to determine the precise molecular weight of the DVD-Ig binding proteins, mass spectrometry was employed. […] To further study the physical properties of DVD-Ig binding protein in solution, size exclusion chromatography (SEC) was used to analyze each protein.
The physical stability of DVD-Ig was tested as follows. Purified antibodies in the concentration range of 0.2-0.4 mg/ml in PBS underwent 3 freeze-thaw cycles between −80° C. and 25° C., or were incubated at 4° C., 25° C., or 40° C., for 4 weeks and 8 weeks, followed by analysis using size exclusion chromatography (SEC) analysis (see Table 12).

both IL-1α and IL-1β = test: MRC-5 assay in the presence of both IL-1α and IL-1β (IL-8 synthesis); assay type: cell-based, human; conditions: equal amounts of hIL-1α and hIL-1β in the same culture; read-out: dual-inhibition activity (IL-8 synthesis by MRC-5 cells)
Procedure: The biological activity of DVD-Ig was measured using MRC-5 bioassay. The MRC-5 cell line is a human lung fibroblast cell line that produces IL-8 in response to human IL-1α and IL-1β in a dose-dependent manner. MRC-5 cells were obtained from ATCC and cultured in 10% FBS complete MEM at 37° C. in a 5% CO2 incubator. To determine neutralizing activity of the DVD-Ig against human IL-1α or IL-1β, 50 μl of antibody (1×10^−7 to 1×10^−12 M) in MEM/10% FBS was added to a 96 well plate and pre-incubated with 50 μl of hIL-1α or hIL-1β (200 pg/ml) for 1 hour at 37° C., 5% CO2. MRC-5 cells at a concentration of 1×10^5/ml were then added (100 μl) to all wells, and the plates were incubated overnight at 37° C. in a 5% CO2 incubator. The supernatants were harvested and human IL-8 production measured by standard ELISA (R&D Systems, Minneapolis, Minn.). Neutralizing activity of the DVD-Ig binding protein was determined by its ability to inhibit IL-8 production.
To determine if DVD-Ig binding protein was able to inhibit IL-8 production in the presence of both IL-1α and IL-1β, equal amounts of hIL-1α and hIL-1β were added in the same culture system of MRC-5 assay. […]

[2] = 3xFreeze-Thaw between −80° C. and 25° C.

Row | Molecule | Ab (intact antibody) [1, 2] [percentage] | Agg (aggregates) [1, 2] [percentage] | Frgm (fragments) [1, 2] [percentage] | Ab (intact antibody) ([1]; 4° C. @ 4 Wks) [percentage] | Agg (aggregates) ([1]; 4° C. @ 4 Wks) [percentage] | Frgm (fragments) ([1]; 4° C. @ 4 Wks) [percentage] | Ab (intact antibody) ([1]; 4° C. @ 8 Wks) [percentage] | Agg (aggregates) ([1]; 4° C. @ 8 Wks) [percentage] | Frgm (fragments) ([1]; 4° C. @ 8 Wks) [percentage] | Ab (intact antibody) ([1]; 25° C. @ 4 Wks) [percentage] | Agg (aggregates) ([1]; 25° C. @ 4 Wks) [percentage] | Frgm (fragments) ([1]; 25° C. @ 4 Wks) [percentage] | Ab (intact antibody) ([1]; 25° C. @ 8 Wks) [percentage] | Agg (aggregates) ([1]; 25° C. @ 8 Wks) [percentage] | Frgm (fragments) ([1]; 25° C. @ 8 Wks) [percentage] | Ab (intact antibody) ([1]; 40° C. @ 4 Wks) [percentage] | Agg (aggregates) ([1]; 40° C. @ 4 Wks) [percentage] | Frgm (fragments) ([1]; 40° C. @ 4 Wks) [percentage] | Ab (intact antibody) ([1]; 40° C. @ 8 Wks) [percentage] | Agg (aggregates) ([1]; 40° C. @ 8 Wks) [percentage] | further results
1 | DVD2-Ig: DVD-Ig as DVD1-Ig but with linkers ADAAP (light chain) and AKTTPP (heavy chain) (antibody) VH: MQLSGLTSEDSAMYFCVRFPTGNDYYAMDYWGQGTSVTVSSAKTTPPQIQLVQSGPELKKPGETVKISCKASGYTFRNYGMNWVKQAPGKDLKRMAWINTYTGESTYADDFKGRFAFSLETSASTAYLQINNLKNEDTATYFCARGIYYYGSSYAMDYWGQGTSVTVSS VL: PVEADDAATYYCQQNNEDPFTFGSGTKLEIKRADAAPNIQMTQTTSSLSASLGDRVTISCRASQDISNCLNWYQQKPDGTVKLLIYYTSRLHSGVPSRFSGSGSGTDYSLTISNLEQEDIATYFCQQGKTLPYAFGGGTKLEINR | 100.0 | 0.0 | 0.0 | 100.0 | 0.0 | 0.0 | 100.0 | 0.0 | 0.0 | 100.0 | 0.0 | 0.0 | 100.0 | 0.0 | 0.0 | 100.0 | 0.0 | 0.0 | 100.0 | 0.0 | Frgm (fragments) ([1]; 40° C. @ 8 Wks): 0.0 percentage; aggregation and fragmentation in stability analysis [1]: Neither aggregation nor fragmentation was detected; maintained as intact monomeric molecule ([1]; all conditions tested (freeze-thaw; 4, 25, 40° C. for 4 and 8 weeks)): 100%; SEC profile of purified protein (physical homogeneity) [1]: a single peak; IC50 (both IL-1α and IL-1β): 1.2 nM
2 | DVD1-Ig: DVD-Ig binding hIL-1α and hIL-1β; VH/VL of 13F5.G5 fused directly to N-terminus of 3D12.E3 VH/VL, no linker (antibody) VH: MQLSGLTSEDSAMYFCVRFPTGNDYYAMDYWGQGTSVTVSSQIQLVQSGPELKKPGETVKISCKASGYTFRNYGMNWVKQAPGKDLKRMAWINTYTGESTYADDFKGRFAFSLETSASTAYLQINNLKNEDTATYFCARGIYYYGSSYAMDYWGQGTSVTVSS VL: PVEADDAATYYCQQNNEDPFTFGSGTKLEIKRNIQMTQTTSSLSASLGDRVTISCRASQDISNCLNWYQQKPDGTVKLLIYYTSRLHSGVPSRFSGSGSGTDYSLTISNLEQEDIATYFCQQGKTLPYAFGGGTKLEINRR | 53.50 | 46.50 | 0.00 | 56.63 | 42.43 | 0.94 | 56.91 | 38.18 | 4.91 | 54.34 | 45.66 | 0.00 | 67.39 | 24.42 | 8.19 | 59.42 | 36.70 | 3.88 | 67.16 | 20.55 | Frgm (fragments) ([1]; 40° C. @ 8 Wks): 12.29 percentage; aggregation and fragmentation in stability analysis [1]: showed aggregations in PBS under different conditions; SEC profile of purified protein (physical homogeneity) [1]: a major peak as well as a shoulder peak on the right; IC50 (both IL-1α and IL-1β): 2.2 nM

From patent US8889130B2, “Treatment of osteoarthritis and pain” (Abbvie Inc., priority 2011, dated 2014)
